# Results published in the supplement of paper PMC9112550, “Optimization of the antimicrobial peptide Bac7 by deep mutational scanning” (BMC Biology, 2022).
# System: Escherichia coli TOP10
# Assay: shrunken log2 fold change of peptide-encoding DNA abundance (4.5 h post-induction vs induction); higher = less antimicrobial activity (less host growth inhibition)
# Conditions: time post-induction: 4.5 h; library: site-saturation at positions 5, 18, 19, 20
# 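Note: peptides expressed intracellularly from a pBAD plasmid library in pooled LB shake-flask culture, induced with 0.3% L-arabinose, DNA abundance read by NGS, three biological replicates, DESeq2 with apeglm shrinkage.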
row,Sequence,shrunken log2 fold change
1,RRIRMRPPRLPRPRPRPTPPPRP,1.17
2,RRIRMRPPRLPRPRPRPTQTPRP,2.06
3,RRIRMRPPRLPRPRPRPTQVPRP,1.17
4,RRIRMRPPRLPRPRPRPTSDPRP,0.055
5,RRIRMRPPRLPRPRPRPTTVPRP,0.376
6,RRIRMRPPRLPRPRPRPTVNPRP,0.177
7,RRIRMRPPRLPRPRPRPTWAPRP,0.192
8,RRIRMRPPRLPRPRPRPTWNPRP,0.188
9,RRIRMRPPRLPRPRPRPTYFPRP,-0.0299
10,RRIRMRPPRLPRPRPRPVCKPRP,0.222
11,RRIRMRPPRLPRPRPRPVFLPRP,0.0386
12,RRIRMRPPRLPRPRPRPVGCPRP,0.972
13,RRIRMRPPRLPRPRPRPVGPPRP,0.67
14,RRIRMRPPRLPRPRPRPVICPRP,0.00711
15,RRIRMRPPRLPRPRPRPVLQPRP,0.259
16,RRIRMRPPRLPRPRPRPVMRPRP,0.305
17,RRIRMRPPRLPRPRPRPVNAPRP,0.297
18,RRIRMRPPRLPRPRPRPVNDPRP,-0.00185
19,RRIRMRPPRLPRPRPRPVPTPRP,0.5
20,RRIRMRPPRLPRPRPRPVQLPRP,0.0278
21,RRIRMRPPRLPRPRPRPVQVPRP,-0.00884
22,RRIRMRPPRLPRPRPRPVRSPRP,1.23

row,Sequence,shrunken log2 fold change
1,RRIRMRPPRLPRPRPRPVSNPRP,0.499
2,RRIRMRPPRLPRPRPRPVVCPRP,0.125
3,RRIRMRPPRLPRPRPRPVVHPRP,0.0142
4,RRIRMRPPRLPRPRPRPVWFPRP,0.46
5,RRIRMRPPRLPRPRPRPVWLPRP,3.04
6,RRIRMRPPRLPRPRPRPVWQPRP,0.752
7,RRIRMRPPRLPRPRPRPVWWPRP,-0.0717
8,RRIRMRPPRLPRPRPRPVYIPRP,-0.0842
9,RRIRMRPPRLPRPRPRPWAGPRP,0.235
10,RRIRMRPPRLPRPRPRPWAQPRP,0.35
11,RRIRMRPPRLPRPRPRPWDAPRP,0.228
12,RRIRMRPPRLPRPRPRPWDGPRP,0.0785
13,RRIRMRPPRLPRPRPRPWENPRP,-0.0294
14,RRIRMRPPRLPRPRPRPWHRPRP,-0.0718
15,RRIRMRPPRLPRPRPRPWIWPRP,0.106
16,RRIRMRPPRLPRPRPRPWKKPRP,0.234
17,RRIRMRPPRLPRPRPRPWNGPRP,-0.0377
18,RRIRMRPPRLPRPRPRPWNTPRP,0.000609
19,RRIRMRPPRLPRPRPRPWRQPRP,0.331
20,RRIRMRPPRLPRPRPRPWSYPRP,0.206
21,RRIRMRPPRLPRPRPRPWVQPRP,0.015
22,RRIRMRPPRLPRPRPRPWWNPRP,0.045

row,Sequence,shrunken log2 fold change
1,RRIRMRPPRLPRPRPRPWYIPRP,-0.167
2,RRIRMRPPRLPRPRPRPYCIPRP,0.0786
3,RRIRMRPPRLPRPRPRPYCVPRP,0.117
4,RRIRMRPPRLPRPRPRPYEDPRP,0.477
5,RRIRMRPPRLPRPRPRPYEKPRP,-0.111
6,RRIRMRPPRLPRPRPRPYEVPRP,-0.00992
7,RRIRMRPPRLPRPRPRPYFWPRP,-0.13
8,RRIRMRPPRLPRPRPRPYGNPRP,0.081
9,RRIRMRPPRLPRPRPRPYIFPRP,-0.265
10,RRIRMRPPRLPRPRPRPYIRPRP,-0.13
11,RRIRMRPPRLPRPRPRPYLNPRP,0.00358
12,RRIRMRPPRLPRPRPRPYLQPRP,-0.0699
13,RRIRMRPPRLPRPRPRPYMFPRP,-0.493
14,RRIRMRPPRLPRPRPRPYMGPRP,-0.0411
15,RRIRMRPPRLPRPRPRPYMWPRP,-0.38
16,RRIRMRPPRLPRPRPRPYMYPRP,0.0981
17,RRIRMRPPRLPRPRPRPYNLPRP,0.227
18,RRIRMRPPRLPRPRPRPYVMPRP,-0.0161
19,RRIRMRPPRLPRPRPRPYYHPRP,-0.459
20,RRIRMRPPRLPRPRPRPYYTPRP,0.0968
21,RRIRNRPPRLPRPRPRPAANPRP,0.487
22,RRIRNRPPRLPRPRPRPAAYPRP,-0.0872

row,Sequence,shrunken log2 fold change
1,RRIRNRPPRLPRPRPRPADCPRP,0.131
2,RRIRNRPPRLPRPRPRPADMPRP,-0.00154
3,RRIRNRPPRLPRPRPRPAFWPRP,0.0558
4,RRIRNRPPRLPRPRPRPAGAPRP,0.665
5,RRIRNRPPRLPRPRPRPAGEPRP,0.507
6,RRIRNRPPRLPRPRPRPAHYPRP,-0.299
7,RRIRNRPPRLPRPRPRPAKSPRP,0.163
8,RRIRNRPPRLPRPRPRPALGPRP,-0.361
9,RRIRNRPPRLPRPRPRPANPPRP,0.0813
10,RRIRNRPPRLPRPRPRPANQPRP,0.271
11,RRIRNRPPRLPRPRPRPAPKPRP,0.377
12,RRIRNRPPRLPRPRPRPAPSPRP,0.271
13,RRIRNRPPRLPRPRPRPAQRPRP,-0.0476
14,RRIRNRPPRLPRPRPRPAREPRP,0.191
15,RRIRNRPPRLPRPRPRPATGPRP,-0.04
16,RRIRNRPPRLPRPRPRPAYTPRP,-0.262
17,RRIRNRPPRLPRPRPRPAYWPRP,0.0638
18,RRIRNRPPRLPRPRPRPCANPRP,0.0435
19,RRIRNRPPRLPRPRPRPCDAPRP,-0.195
20,RRIRNRPPRLPRPRPRPCDDPRP,0.0873
21,RRIRNRPPRLPRPRPRPCFRPRP,-0.241
22,RRIRNRPPRLPRPRPRPCFYPRP,-0.474

row,Sequence,shrunken log2 fold change
1,RRIRNRPPRLPRPRPRPCGAPRP,0.144
2,RRIRNRPPRLPRPRPRPCHRPRP,-0.139
3,RRIRNRPPRLPRPRPRPCHTPRP,-0.316
4,RRIRNRPPRLPRPRPRPCIDPRP,0.027
5,RRIRNRPPRLPRPRPRPCIHPRP,-0.355
6,RRIRNRPPRLPRPRPRPCIIPRP,-0.0176
7,RRIRNRPPRLPRPRPRPCIPPRP,-0.0387
8,RRIRNRPPRLPRPRPRPCITPRP,-0.049
9,RRIRNRPPRLPRPRPRPCIYPRP,-0.599
10,RRIRNRPPRLPRPRPRPCLAPRP,-0.69
11,RRIRNRPPRLPRPRPRPCLKPRP,-0.315
12,RRIRNRPPRLPRPRPRPCLSPRP,-0.043
13,RRIRNRPPRLPRPRPRPCMMPRP,-0.325
14,RRIRNRPPRLPRPRPRPCPNPRP,-0.344
15,RRIRNRPPRLPRPRPRPCQQPRP,-0.0105
16,RRIRNRPPRLPRPRPRPCRCPRP,-0.307
17,RRIRNRPPRLPRPRPRPCRIPRP,-0.134
18,RRIRNRPPRLPRPRPRPCRVPRP,-0.0128
19,RRIRNRPPRLPRPRPRPCTYPRP,0.05
20,RRIRNRPPRLPRPRPRPCVWPRP,-0.024
21,RRIRNRPPRLPRPRPRPCWTPRP,-0.0133
